Tests used:
[1] = biological target: T1, Recombinant Human EGF R/ErbB1 (human, UniProt P00533 25-645); assay: SPR (Biacore)
T1 construct: Bought reagent
Experimental: (§1) The BIACORE assay (Biacore, Inc, Piscataway, N.J.) determines the affinity of antibodies or DVD-Ig with kinetic measurements of on-rate and off-rate constants. Binding of antibodies or DVD-Ig to a target antigen (for example, a purified recombinant target antigen) was determined by surface plasmon resonance-based measurements with a Biacore® 1000 or 3000 instrument (Biacore® AB, Uppsala, Sweden) using running HBS-EP (10 mM HEPES [pH 7.4], 150 mM NaCl, 3 mM EDTA, and 0.005% surfactant P20) at 25° C. All chemicals were obtained from Biacore® AB (Uppsala, Sweden) or otherwise from a different source as described in the text. For example, approximately 5000 RU of goat anti-mouse IgG, (Fcγ), fragment specific polyclonal antibody (Pierce Biotechnology Inc, Rockford, Ill.) diluted in 10 mM sodium acetate (pH 4.5) was directly immobilized across a CM5 research grade biosensor chip using a standard amine coupling kit according to manufacturer's instructions and procedures at 25 μg/ml. Unreacted moieties on the biosensor surface were blocked with ethanolamine. Modified carboxymethyl dextran surface in flowcell 2 and 4 was used as a reaction surface. Unmodified carboxymethyl dextran without goat anti-mouse IgG in flow cell 1 and 3 was used as the reference surface. For kinetic analysis, rate equations derived from the 1:1 Langmuir binding model were fitted simultaneously to association and dissociation phases of all eight injections (using global fit analysis) with the use of Biaevaluation 4.0.1 software. Purified antibodies or DVD-Ig were diluted in HEPES-buffered saline for capture across goat anti-mouse IgG specific reaction surfaces. Antibodies or DVD-Ig to be captured as a ligand (25 μg/ml) were injected over reaction matrices at a flow rate of 5 μl/min. The association and dissociation rate constants, kₒₙ (M⁻¹s⁻¹) and koff (s⁻¹) were determined under a continuous flow rate of 25 μl/min. Rate constants were derived by making kinetic binding measurements at different antigen concentrations ranging from 10-200 nM. The equilibrium dissociation constant (M) of the reaction between antibodies or DVD-Igs and the target antigen was then calculated from the kinetic rate constants by the following formula: KD=koff/kₒₙ. Binding was recorded as a function of time and kinetic rate constants were calculated.

Recombinant Human β-NGF = Recombinant Human β-NGF (human, UniProt P01138 122-241); assay: cell-based or functional assay
[2] = biological target: T2, Recombinant Human ErbB3/HER3 Fc Chimera (human, UniProt P21860 20-643); assay: SPR (Biacore)
T2 construct: Bought reagent; not shown: IgG Fc part of the bought chimera
Experimental: as §1

[3] = biological target: T3, Recombinant Human VEGF 165 (human, UniProt P15692-4 27-191); assay: SPR (Biacore)
T3 construct: Bought reagent
Experimental: as §1

Recombinant Human DLL4 = biological target: T4, Recombinant Human DLL4 (human, UniProt Q9NR61 27-524); assay: SPR (Biacore)
T4 construct: Bought reagent of the Biacore analyses
Experimental: as §1

Recombinant Human PlGF = biological target: T5, Recombinant Human PlGF (human, UniProt P49763-2 21-149, limits assumed); assay: SPR (Biacore)
T5 construct: Bought reagent; also called P1GF
T5 sequence (looked up): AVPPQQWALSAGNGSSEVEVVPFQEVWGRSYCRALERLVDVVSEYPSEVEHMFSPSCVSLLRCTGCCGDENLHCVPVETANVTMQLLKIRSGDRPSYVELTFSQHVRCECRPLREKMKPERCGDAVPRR
Experimental: as §1

[4] = biological target: T6, Recombinant Human MSP R/Ron (human, UniProt Q04912 25-571, limits assumed); assay: SPR (Biacore)
T6 construct: Bought reagent
Experimental: as §1

IGFR on cells = biological target: T7, IGFR on cells (UniProt P08069 31-1367, limits assumed); assay: flow cytometry on cells, antibody at 2 ug/mL
T7 construct: whole, on cells; also called IGF1R
Experimental: Stable cell lines overexpressing a cell-surface antigen of interest or human tumor cell lines were harvested from tissue culture flasks and resuspended in phosphate buffered saline (PBS) containing 5% fetal bovine serum (PBS/FBS). Prior to staining, human tumor cells were incubated on ice with (100 μl) human IgG at 5 μg/ml in PBS/FCS. 1−5×10⁵ cells were incubated with antibody or DVD-Ig (2 μg/mL) in PBS/FBS for 30-60 minutes on ice. Cells were washed twice and 100 μl of F(ab′)2 goat anti human IgG, Fcγ-phycoerythrin (1:200 dilution in PBS) (Jackson ImmunoResearch, West Grove, Pa., Cat. #109-116-170) was added. After a 30 minute incubation on ice, cells were washed twice and resuspended in PBS/FBS. Fluorescence was measured using a Becton Dickinson FACSCalibur (Becton Dickinson, San Jose, Calif.).
The geometric mean is the n root of the multiplication product of n fluorescent signals (a1×a2×a3 . . . an). With log-transformed data the geometric mean is used to normalize the weighting of the data distribution.

T3 sequence (P15692 other isoform, or with tags, fused parts or gaps limits assumed): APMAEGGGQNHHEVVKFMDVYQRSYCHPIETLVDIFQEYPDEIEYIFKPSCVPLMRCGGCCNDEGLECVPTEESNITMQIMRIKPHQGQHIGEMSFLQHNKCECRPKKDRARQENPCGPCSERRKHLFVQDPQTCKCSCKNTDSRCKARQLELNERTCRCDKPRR
T4 sequence (Q9NR61 27-524 limits assumed): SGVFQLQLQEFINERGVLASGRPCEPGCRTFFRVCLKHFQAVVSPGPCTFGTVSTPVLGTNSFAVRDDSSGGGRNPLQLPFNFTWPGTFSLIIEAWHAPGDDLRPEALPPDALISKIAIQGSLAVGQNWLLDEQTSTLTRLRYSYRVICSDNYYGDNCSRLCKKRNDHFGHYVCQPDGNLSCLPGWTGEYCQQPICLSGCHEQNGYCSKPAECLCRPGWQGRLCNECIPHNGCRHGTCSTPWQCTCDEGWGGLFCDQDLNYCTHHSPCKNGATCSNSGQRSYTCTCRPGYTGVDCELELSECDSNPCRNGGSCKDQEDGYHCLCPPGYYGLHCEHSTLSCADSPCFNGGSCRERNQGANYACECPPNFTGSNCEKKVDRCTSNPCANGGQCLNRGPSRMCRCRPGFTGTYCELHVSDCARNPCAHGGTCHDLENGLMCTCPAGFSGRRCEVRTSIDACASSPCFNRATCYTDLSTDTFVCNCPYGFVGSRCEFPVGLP

B1: DVD1370 (bispecific antibody, human IgG1, kappa)
heavy: not shown
light: DIQMTQSPSSMSVSVGDRVTITCHSSQDINSNIGWLQQKPGKSFKGLIYHGTNLDDGVPSRFSGSGSGTDYTLTISSLQPEDFATYYCVQYAQFPWTFGGGTKLEIKRTVAAPDIQMTQSPSSLSASVGDRVTITCRASEDIYNALAWYQQKPGKAPKLLIYNTDTLHTGVPSRFSGSGSGTDYTLTISSLQPEDFATYFCQHYFHYPRTFGQGTKVEIKRTVAAPSVFIFPPSDEQLKSGTASVVCLLNNFYPREAKVQWKVDNALQSGNSQESVTEQDSKDSTYSLSSTLTLSKADYEKHKVYACEVTHQGLSSPVTKSFNRGEC
notes: DVD-Ig; also called DVD1370H; DVD1370L
B1 was tested, and the Kd [1] was < 0.0091 nM, the koff [1] was < 1e-06 s⁻¹ and the kon [1] was 110000 M⁻¹ s⁻¹. The “C-Terminal VD NGF Inhibition Assay EC50” value (Recombinant Human β-NGF) was 5.96 nM.

B2: AB063 (antibody, V domains shown)
VH: EVQLVESGGGLVQPGGSLRLSCAASGFTFSIYSMNWVRQAPGKGLEWVSYISSSSSTIYYADSVKGRFTISRDNAKNSLYLQMNSLRDEDTAVYYCARDRGDFDAFDIWGQGTMVTVSS
VL: DIQMTQSPSSLSASVGDRVTITCQASQDITNYLNWYQQKPGKAPKLLIYDASNLETGVPSRFSGSGSGTDFTFTISSLQPEDIATYNCQQCENFPITFGQGTRLEIKR
notes: Parent antibody; also called AB063VH
B2 showed a Kd [2] of 1.36 nM, a koff [2] of 0.000117 s⁻¹ and a kon [2] of 86600 M⁻¹ s⁻¹.

B3: DVD1320 (bispecific antibody, human IgG1, kappa)
heavy: not shown
light: DIQMTQSPSSLSASVGDRVTITCQASQDITNYLNWYQQKPGKAPKLLIYDASNLETGVPSRFSGSGSGTDFTFTISSLQPEDIATYNCQQCENFPITFGQGTRLEIKRTVAAPDIQMTQSPSSLSASVGDRVTITCRASEDIYNALAWYQQKPGKAPKLLIYNTDTLHTGVPSRFSGSGSGTDYTLTISSLQPEDFATYFCQHYFHYPRTFGQGTKVEIKRTVAAPSVFIFPPSDEQLKSGTASVVCLLNNFYPREAKVQWKVDNALQSGNSQESVTEQDSKDSTYSLSSTLTLSKADYEKHKVYACEVTHQGLSSPVTKSFNRGEC
notes: DVD-Ig; also called DVD1320H; DVD1320L
With B3 the Kd [2] was < 0.0042 nM, the koff [2] was < 1e-06 s⁻¹ and the kon [2] was 240000 M⁻¹ s⁻¹.

B4: DVD1328 (bispecific antibody, human IgG1, kappa)
heavy: not shown
light: DIQMTQSPSSLSASVGDRVTITCSASQDISNYLNWYQQKPGKAPKVLIYFTSSLHSGVPSRFSGSGSGTDFTLTISSLQPEDFATYYCQQYSTVPWTFGQGTKVEIKRTVAAPDIQMTQSPSSLSASVGDRVTITCRASEDIYNALAWYQQKPGKAPKLLIYNTDTLHTGVPSRFSGSGSGTDYTLTISSLQPEDFATYFCQHYFHYPRTFGQGTKVEIKRTVAAPSVFIFPPSDEQLKSGTASVVCLLNNFYPREAKVQWKVDNALQSGNSQESVTEQDSKDSTYSLSSTLTLSKADYEKHKVYACEVTHQGLSSPVTKSFNRGEC
notes: DVD-Ig; also called DVD1328H; DVD1328L
Work on B4 yielded a Kd [3] of 0.08 nM, a koff [3] of 7.7e-05 s⁻¹ and a kon [3] of 960000 M⁻¹ s⁻¹.

B5: DVD1330 (bispecific antibody, human IgG1, kappa)
heavy: not shown
light: DIQMTQSPSSLSASVGDRVTITCRASQDVSTAVAWYQQKPGKAPKLLIYSASFLYSGVPSRFSGSGSGTDFTLTISSLQPEDFATTYYCQQSYTGTVTFGQGTKVEIKRTVAAPDIQMTQSPSSLSASVGDRVTITCRASEDIYNALAWYQQKPGKAPKLLIYNTDTLHTGVPSRFSGSGSGTDYTLTISSLQPEDFATYFCQHYFHYPRTFGQGTKVEIKRTVAAPSVFIFPPSDEQLKSGTASVVCLLNNFYPREAKVQWKVDNALQSGNSQESVTEQDSKDSTYSLSSTLTLSKADYEKHKVYACEVTHQGLSSPVTKSFNRGEC
notes: DVD-Ig; also called DVD1330H; DVD1330L
With B5 the Kd (Recombinant Human DLL4) was 0.38 nM, the koff (Recombinant Human DLL4) was 0.0002 s⁻¹ and the kon (Recombinant Human DLL4) was 520000 M⁻¹ s⁻¹.

B6: DVD1369 (bispecific antibody, human IgG1, kappa)
heavy: not shown
light: DIQMTQSPSSLSASVGDRVTITCRASEDIYNALAWYQQKPGKAPKLLIYNTDTLHTGVPSRFSGSGSGTDYTLTISSLQPEDFATYFCQHYFHYPRTFGQGTKVEIKRTVAAPDIQMTQSPSSMSVSVGDRVTITCHSSQDINSNIGWLQQKPGKSFKGLIYHGTNLDDGVPSRFSGSGSGTDYTLTISSLQPEDFATYYCVQYAQFPWTFGGGTKLEIKRTVAAPSVFIFPPSDEQLKSGTASVVCLLNNFYPREAKVQWKVDNALQSGNSQESVTEQDSKDSTYSLSSTLTLSKADYEKHKVYACEVTHQGLSSPVTKSFNRGEC
notes: DVD-Ig; also called DVD1369H; DVD1369L
With B6 the Kd [1] was < 0.0024 nM, the koff [1] was < 1e-06 s⁻¹ and the kon [1] was 410000 M⁻¹ s⁻¹. For the same binder, the “N-Terminal VD NGF Inhibition Assay EC50” value (Recombinant Human β-NGF) was 0.0056 nM.

B7: AB047 (antibody, V domains shown)
VH: QVQLQQSGAELVKPGASVKISCKASGYTFTDYYINWVKLAPGQGLEWIGWIYPGSGNTKYNEKFKGKATLTIDTSSSTAYMQLSSLTSEDTAVYFCVRDSPFFDYWGQGTLLTVSS
VL: DIVLTQSPDSLAVSLGERVTMNCKSSQSLLNSGMRKSFLAWYQQKPGQSPKLLIYWASTRESGVPDRFTGSGSGTDFTLTISSVQAEDVAVYYCKQSYHLFTFGSGTKLEIKR
notes: Parent antibody; also called PlGF; AB047VH
Work on B7 yielded a Kd (Recombinant Human PlGF) of 0.0282 nM, a koff (Recombinant Human PlGF) of 0.000108 s⁻¹ and a kon (Recombinant Human PlGF) of 3.8e+06 M⁻¹ s⁻¹.

B8: DVD1332 (bispecific antibody, human IgG1, kappa)
heavy: not shown
light: DIVLTQSPDSLAVSLGERVTMNCKSSQSLLNSGMRKSFLAWYQQKPGQSPKLLIYWASTRESGVPDRFTGSGSGTDFTLTISSVQAEDVAVYYCKQSYHLFTFGSGTKLEIKRTVAAPDIQMTQSPSSLSASVGDRVTITCRASEDIYNALAWYQQKPGKAPKLLIYNTDTLHTGVPSRFSGSGSGTDYTLTISSLQPEDFATYFCQHYFHYPRTFGQGTKVEIKRTVAAPSVFIFPPSDEQLKSGTASVVCLLNNFYPREAKVQWKVDNALQSGNSQESVTEQDSKDSTYSLSSTLTLSKADYEKHKVYACEVTHQGLSSPVTKSFNRGEC
notes: DVD-Ig; also called DVD1332H; DVD1332L
B8 gave a Kd (Recombinant Human PlGF) of 0.055 nM, a koff (Recombinant Human PlGF) of 0.00017 s⁻¹ and a kon (Recombinant Human PlGF) of 3e+06 M⁻¹ s⁻¹.

B9: DVD1334 (bispecific antibody, human IgG1, kappa)
heavy: not shown
light: QAVLTQPSSLSAPPGASASLTCTLRSGFNVDSYRISWYQQKPGSPPQYLLRYKSDSDKQQGSGVPSRFSGSKDASANAGILLISGLQSEDEADYYCMIWHSSAWVFGGGTKLTVLRTVAAPDIQMTQSPSSLSASVGDRVTITCRASEDIYNALAWYQQKPGKAPKLLIYNTDTLHTGVPSRFSGSGSGTDYTLTISSLQPEDFATYFCQHYFHYPRTFGQGTKVEIKRTVAAPSVFIFPPSDEQLKSGTASVVCLLNNFYPREAKVQWKVDNALQSGNSQESVTEQDSKDSTYSLSSTLTLSKADYEKHKVYACEVTHQGLSSPVTKSFNRGEC
notes: DVD-Ig; also called DVD1334H; DVD1334L
Work on B9 yielded a Kd [4] of 5.7 nM, a koff [4] of 0.0067 s⁻¹ and a kon [4] of 1.2e+06 M⁻¹ s⁻¹.

B10: AB011 (antibody, V domains shown)
VH: EVQLLESGGGLVQPGGSLRLSCTASGFTFSSYAMNWVRQAPGKGLEWVSAISGSGGTTFYADSVKGRFTISRDNSRTTLYLQMNSLRAEDTAVYYCAKDLGWSDSYYYYYGMDVWGQGTTVTVSS
VL: DIQMTQFPSSLSASVGDRVTITCRASQGIRNDLGWYQQKPGKAPKRLIYAASRLHRGVPSRFSGSGSGTEFTLTISSLQPEDFATYYCLQHNSYPCSFGQGTKLEIKR
notes: Parent antibody; also called IGFR; IGF1R
In the case of B10, the “FACS Geometric Mean” value (IGFR on cells) is reported as 535.

B11: AB005 (antibody, V domains shown)
VH: EVQLVQSGGGLVKPGGSLRLSCAASGFTFSSYAMHWVRQAPGKGLEWVAVISYDGSNKYYADSVKGRFTISRDNSKNTLYLQMNSLRAEDTAVYYCARFSGWPNNYYYYGMDVWGQGTTVTVSS
VL: DVVMTQSPLSLPVTPGEPASISCRSSQSLLHSNGFNYVDWYLQKPGQSPHLLIYFGSYRASGVPDRFSGSGSGTDFTLKISRVEAEDVGVYYCMQALQTPPWTFGQGTKVEIRR
notes: Parent antibody; also called RON
For B11, the Kd [4] was 20.2 nM, the koff [4] was 0.000739 s⁻¹ and the kon [4] was 36600 M⁻¹ s⁻¹.
